The results in this text go back to patent publication US20060019871A1, “Endothelial cell apoptosis induced by fibrinogen gamma chain C-terminal fragment” (The Regents of the University of California, priority 2004, published 2006).

Like-named read-outs stand apart in the source and are kept apart here.

Test [1] deals with γC-399tr-induced apoptosis. In words: Blocking of γC-399tr-induced apoptosis by MAPK inhibitors (FIG. 6). Type of test: cell-based. How it is done:
10 μM of inhibitor is the saturating concentration.
It was further observed that endothelial cell apoptosis induced by γC-399tr can be blocked by p38 MAP kinase inhibitor SB-203580 but not inhibitors of some other MAP kinases.

Test [2] deals with DLD-1 human colon adenocarcinoma cells. The test can be described thus: Tumor growth of DLD-1 xenograft in SCID mice. Type of test: in vivo. Conditions: injections of recombinant γC-399tr in PBS. Here is the method: Human breast adenocarcinoma BT20 cells are subcutaneously injected into 7-9-week-old male non-obese diabetes/severe combined immunodeficiency (NOD/SCID) mice. The animals are divided into 4 groups, each having 5 animals. Each animal receives 2×10^6 cells in the injection. The treatment groups, Groups 1-3, are injected daily intraperitoneally with recombinant γC. The control group, Group 4, receives injections of equal volumes of PBS each day. The dimensions of the tumors are measured and the tumor volumes are calculated. After two weeks of treatment, the animals are sacrificed and the tumors are excised, sectioned, and evaluated histologically. To examine the tumor vasculatures, the tumor sections are stained by CD31 anti-mouse monoclonal antibody (PharMingen, San Diego, Calif.). Tumor size and the extent of tumor vasculature are compared among all treatment and control groups.
Following the general procedure described in Example 2, DLD-1 human colon adenocarcinoma cells were injected into SCID mice. Subsequently, the treatment groups of mice received injections of recombinant γC-399tr in PBS, whereas the control group received PBS injections.

In test [3] the test system is caspase-3 and caspase-7. The test can be described thus: Activation of caspases by γC in CPAE cells. Type of test: cell-based, calf. To be noted: protein expression and enzymatic activity.
The subject of test [4] is MAP kinases Erk1 and 2. The test can be described thus: Activation of MAP kinases Erk1 and 2, western blotting in β3-CHO cells (FIG. 4). Type of test: cell-based, Chinese hamster. Conditions: soluble γC in the medium, 30 min. How it is done:
FIG. 4. Fibrinogen γC-induced activation of MAP kinases Erk1 and 2. CHO cells expressing recombinant αvβ3 (β3-CHO cells) were incubated with soluble γC at indicated concentrations for 30 min and the levels of MAP kinases (Erk1 and 2) were determined by western blotting with anti-phosphorylated Erk 1 and 2.
It remains a possibility that γC acts as an antagonist and blocks signaling from other integrin ligands by competing for binding to integrins.
(In general: Immunoblotting shows a protein as a band on a membrane.)

Test [5] relates to Bovine Arterial Endothelial (BAE) cell. The test can be described thus: Growth arrest of BAE cells in culture (FIG. 1). The class given is cell-based. Here is the method: FIG. 1. Fibrinogen γC-induced growth arrest of Bovine Arterial Endothelial (BAE) cell. […] Fragment D required much higher concentrations (100 μg/ml) to induce detectable apoptotic effects.
Test [6] has as its system BAE cells. The test can be described thus: MTS (CellTiter96) proliferation assay, BAE cells (FIG. 2). Type of test: cell-based, bovine. How it is done: (§1) FIG. 2. […] The numbers of proliferating cells were determined using a tetrazolium compound MTS (CellTiter96® assay).
Test [7] concerns β3-CHO cells. The test can be described thus: MTS (CellTiter96) proliferation assay, β3-CHO cells (FIG. 2). The class given is cell-based, Chinese hamster. How it is done:
as §1

Test [8] relates to BAE cells. In words: Annexin V / propidium iodide binding, flow cytometry, apoptosis of BAE cells (FIG. 3). The class given is cell-based, bovine. Here is the method:
FIGS. 3A and 3B. […] BAE cells were treated with 10 μg/ml recombinant soluble γC or native fibrinogen for the indicated time. The binding of annexin V or propidium iodide (PI) to the treated BAE cells was measured in flow cytometry (FIG. 3A).
(In general: In flow cytometry, cells or beads pass a laser one at a time.)

Test [9] deals with CHO cells. The test can be described thus: MTS (CellTiter96) proliferation assay, CHO cells (FIG. 2). Type of test: cell-based, Chinese hamster. How it is done: as §1
The test system of test [10] is calf pulmonary artery endothelial (CPAE) cells. In words: CPAE proliferation / apoptosis, MTS and Phosphate assay (FIG. 5). Type of test: cell-based. Here is the method:
FIG. 5. Inhibition of CPAE Proliferation induced by fibrinogen γC and γC-399tr. CPAE proliferation was measured by using a MTS and Phosphate assay. 10% serum-induced proliferation was inhibited by γC in a concentration-dependent fasion 48 hours passed after 1×10^5/ml. The γC-399tr is approximately 3 times more efficient in inducing apoptosis of CPAE cells.
A deletion mutant of γC that has 12 amino acids truncated from the C-terminal of γC, termed γC-399tr (having the amino acid sequence of 1-249 of SEQ ID NO:3), was recombinantly produced and purified.

Turning to `C[S+]([O-])c1ccc(-c2nc(-c3ccncc3)c(-c3ccc(F)cc3)[nH]2)cc1` (stereo not drawn) [SB-203580], the “saturating concentration of inhibitor for blocking γC-399tr-induced apoptosis” value in test [1] is 10 µM. Further, the “blocking of γC-399tr-induced apoptosis” value in [1] (endothelial cell) is “blocks”.

B1: γC-399tr: Deletion mutant of γC with 12 amino acids truncated from the C-terminal; amino acid sequence 1-249 of SEQ ID NO:3 (protein, listed as Homo sapiens)
chain: KDCQDIANKGAKQSGLYFIKPLKANQQFLVYCEIDGSGNGWTVFQKRLDGSVDFKKNWIQYKEGFGHLSPTGTTEFWLGNEKIHLISTQSAIPYALRVELEDWNGRTSTADYAMFKVGPEADKYRLTYAYFAGGDAGDAFDGFDFGDDPSDKFFTSHNGMQFSTWDNDNDKFEGNCAEQDGSGWWMNKCHAGHLNGVYYQGGTYSKASTPNGYDNGIIWATWKTRWYSMKKTTMKIIPFNRLTIGEGQQ
modifications: C-terminal region of fibrinogen gamma chain, isoform gamma-A, residues 177-437
B1: in test [2], the “tumor size versus PBS control group” value is “reduced tumor size”.

B2: γC: Fibrinogen γ-chain C-terminal domain, 30 Kd, about 250 amino acid residues, sequence as set forth in SEQ ID NO:3 (protein, listed as Homo sapiens)
chain: KDCQDIANKGAKQSGLYFIKPLKANQQFLVYCEIDGSGNGWTVFQKRLDGSVDFKKNWIQYKEGFGHLSPTGTTEFWLGNEKIHLISTQSAIPYALRVELEDWNGRTSTADYAMFKVGPEADKYRLTYAYFAGGDAGDAFDGFDFGDDPSDKFFTSHNGMQFSTWDNDNDKFEGNCAEQDGSGWWMNKCHAGHLNGVYYQGGTYSKASTPNGYDNGIIWATWKTRWYSMKKTTMKIIPFNRLTIGEGQQHHLGGAKQAGDV
modifications: C-terminal region of fibrinogen gamma chain, isoform gamma-A, residues 177-437
B2: in [3], the “activation of caspase-3 and caspase-7” value was “activation of caspase-3 and caspase-7”. Besides, in test [4], the “concentration inducing MAP kinase activation” value was “less than 1 μg/ml”. Moreover, in test [5] (12.5 μg/ml each in culture media, 1×10^4 cells per well, 48 hours), the “proliferation of BAE cells” value is recorded as “blocked proliferation”. Further, the “concentration blocking proliferation of BAE cells” value in test [5] (FIG. 1 as cited) is on record as “less than 1 μg/ml”. Moreover, in test [6], the “level of γC effectively blocking proliferation of BAE cells” value is “below 1 μg/ml”. Further, the “proliferation of BAE cells in the MTS assay” value in [6] is “blocked proliferation”. Moreover, the “effect on proliferation of β3-CHO cells” value in test [7] was “little or no effect”; in test [7] (listed as γC domain), “not”. Also, in [8] (10 μg/ml, annexin V / PI binding), the “induction of apoptosis of BAE cells” value is reported as “induced apoptosis”. In test [8] (10 μg/ml, annexin V / PI flow cytometry), the “time at which apoptosis of BAE cells was detectable” value was in the range of 2 to 4 h. For the same molecule, the “time in which apoptosis of BAE cells was induced” value in test [8] (annexin V binding assays) fell in the range of 2 to 4 h. The “effect on proliferation of CHO cells” value in [9] is “little or no effect”; in [9] (listed as γC domain) it was “not”. For the same molecule, the “apoptosis in CPAE cells” value in test [10] is listed as “induced apoptosis”. Moreover, in [10] (48 hours, 1×10^5/ml), the “10% serum-induced CPAE proliferation” value is on record as “inhibited”.
